Consider 167 variants from the RNAGym collection of RNA variant scans (doi:10.7554/elife.80360).

The labels stand for the following.
B1: Hairpin Ribozyme (parent)
chain: GUCCUCUUUCACGUGCGCGUGAAAGAGAGAAGUGAACCAGAGAAACACACGUUGUGGUAUAUUACCUGGUA

This data set covers variants of B1. As to the kind of experiment: self-cleavage, relative activity (ratio to wild type); higher = more cleavage; co-transcriptional.
On to A49U G56C, for which the self-cleavage was 0.102.

Turning to A49U G56U, the self-cleavage turned out to be 0.147.

As to C48A C65A, the self-cleavage amounted to 0.131.

In the case of C48A U67C, the self-cleavage was 0.137.

In the case of C48A U67A, the self-cleavage came to 0.11.

As to C48A G68U, the self-cleavage was 0.16.

Turning to C48U G56C, the self-cleavage worked out at 0.104.

As to C48A U58C, the self-cleavage was determined as 0.154.

For A49U U53A, the self-cleavage was determined as 0.139.

For the variant A49U U53G, the self-cleavage worked out at 0.167.

For the variant A49U U53C, the self-cleavage turned out to be 0.124.

As for A49C A64C, the self-cleavage is 0.168.

For the variant A49C A64G, the self-cleavage was found to be 0.0856.

As for A49G C65A, the self-cleavage was determined as 0.42.

In the case of C48A U63C, the self-cleavage was 0.198.

Turning to A49C A71C, the self-cleavage was found to be 0.291.

With C48U A71G, the self-cleavage was 0.242.

For C48A C66A, the self-cleavage worked out at 0.189.

As for A49U U63G, the self-cleavage was found to be 0.111.

Take A49U U63A: the self-cleavage worked out at 0.183.

Turning to A49U C65U, the self-cleavage came to 0.0248.

As for A49G U70C, the self-cleavage was determined as 0.262.

As for A49G U70G, the self-cleavage turned out to be 0.453.

In the case of A49G U70A, the self-cleavage is 0.377.

For the variant C48U U52C, the self-cleavage was found to be 0.194.

For A49U U60A, the self-cleavage came out at 0.281.

As to A49G U62C, the self-cleavage came to 0.154.

Take A49U U70C: the self-cleavage amounted to 0.124.

Consider A49G G51U, for which the self-cleavage was 0.532.

As for C50A A61U, the self-cleavage was 0.281.

In the case of C48U U58A, the self-cleavage turned out to be 0.214.

For the variant C48U U58G, the self-cleavage stood at 0.152.

As for C48G A59U, the self-cleavage was found to be 0.0386.

Take C48U A59U: the self-cleavage turned out to be 0.0991.

Turning to C50G A64C, the self-cleavage is 0.201.

In the case of C50G G51C, the self-cleavage came out at 0.327.

With C48A A71C, the self-cleavage is 0.343.

On to C48A A71G, for which the self-cleavage was 0.19.

With C48A A71U, the self-cleavage was determined as 0.129.

Regarding C48A A61G, the self-cleavage came to 0.151.

For the variant C48A C50G, the self-cleavage stood at 0.0517.

Regarding C50G C66U, the self-cleavage is 0.146.

A49U G68A: the self-cleavage is 0.172.

On to A49C G69A, for which the self-cleavage was found to be 0.139.

On to A49C G69U, for which the self-cleavage worked out at 0.136.

On to C48G U62G, for which the self-cleavage was found to be 0.107.

On to C48G U62C, for which the self-cleavage is 0.139.

For A49G G68C, the self-cleavage turned out to be 0.307.

Take C48A G51U: the self-cleavage stood at 0.141.

Consider C48A G51C, for which the self-cleavage is 0.152.

For the variant C48A G51A, the self-cleavage came to 0.106.

Consider C48U C66A, for which the self-cleavage was 0.176.

Consider C48A U53G, for which the self-cleavage came to 0.191.

Take C48A U53A: the self-cleavage was found to be 0.228.

For the variant C50A A59U, the self-cleavage came out at 0.231.

On to C48A U62A, for which the self-cleavage was 0.14.

On to A49U U55C, for which the self-cleavage was determined as 0.349.

On to C50G G57U, for which the self-cleavage was determined as 0.307.

In the case of A49C G56C, the self-cleavage is 0.12.

C48U U70C: the self-cleavage stood at 0.0914.

In the case of C48G U58A, the self-cleavage came out at 0.105.

On to C50A U60C, for which the self-cleavage is 0.419.

Take A49G G57U: the self-cleavage stood at 0.22.

On to C48G U63A, for which the self-cleavage was 0.181.

As to C48G U60C, the self-cleavage came to 0.0854.

As to C48A A64C, the self-cleavage is 0.0601.

Regarding C48G G56U, the self-cleavage was determined as 0.193.

For the variant C48U U53A, the self-cleavage is 0.0973.

Take C48U U53G: the self-cleavage was 0.112.

Turning to C48G C66A, the self-cleavage amounted to 0.131.

With A49U U62C, the self-cleavage came out at 0.196.

Regarding A49U G54A, the self-cleavage is 0.477.

As for A49U C50U, the self-cleavage is 0.139.

Turning to A49C G54U, the self-cleavage was 0.216.

In the case of A49C U60G, the self-cleavage was determined as 0.166.

Take A49C G57A: the self-cleavage was determined as 0.193.

Turning to A49C U62G, the self-cleavage worked out at 0.225.

As for C48U U62G, the self-cleavage came to 0.108.

For the variant C50A U70A, the self-cleavage was 0.303.

C50A U70G: the self-cleavage stood at 0.252.

C48G G54U: the self-cleavage was found to be 0.211.

Consider C48G C65A, for which the self-cleavage was found to be 0.22.

For C48G C65U, the self-cleavage came to 0.166.

With C48G C65G, the self-cleavage is 0.149.

Take C48U G68U: the self-cleavage was determined as 0.097.

For C50A A64G, the self-cleavage came to 0.211.

With A49U U58G, the self-cleavage is 0.15.

Turning to A49U U58C, the self-cleavage worked out at 0.28.

A49U U58A: the self-cleavage came to 0.187.

For A49G A64U, the self-cleavage worked out at 0.0802.

In the case of C48A U60G, the self-cleavage turned out to be 0.149.

As to A47U U70G, the self-cleavage is 0.141.

In the case of C50A U58A, the self-cleavage was 0.183.

With C50A U58C, the self-cleavage amounted to 0.144.

C50A G69U: the self-cleavage was found to be 0.173.

In the case of A49U U67C, the self-cleavage is 0.11.

In the case of A49U U67A, the self-cleavage was found to be 0.0529.

Regarding C48G U55G, the self-cleavage is 0.143.

On to C48G U55C, for which the self-cleavage is 0.106.

As to A49C C66A, the self-cleavage turned out to be 0.28.

For A49C C50A, the self-cleavage is 0.139.

In the case of C48G G68A, the self-cleavage is 0.226.

Consider C48G G68U, for which the self-cleavage was determined as 0.163.

Consider C50A G54C, for which the self-cleavage came out at 0.375.

As for C50A G54A, the self-cleavage was 0.742.

As to A49C A61C, the self-cleavage was found to be 0.124.

Turning to C48A U55C, the self-cleavage came out at 0.144.

As for C50G A71C, the self-cleavage came to 0.69.

Turning to A49G U58A, the self-cleavage was 0.217.

With A49G U63A, the self-cleavage is 0.0688.

Take A49G U63C: the self-cleavage came out at 0.253.

Regarding A49G G56C, the self-cleavage was 0.155.

On to C50G G69A, for which the self-cleavage came out at 0.152.

Regarding C50G G69C, the self-cleavage is 0.227.

With C50G G68U, the self-cleavage came to 0.22.

Regarding C50G A59C, the self-cleavage is 0.221.

On to C50G A59G, for which the self-cleavage amounted to 0.211.

Take C50A U62G: the self-cleavage amounted to 0.177.

In the case of C50A U62A, the self-cleavage was 0.0965.

On to C50A U62C, for which the self-cleavage worked out at 0.147.

C50A C65G: the self-cleavage was 0.0746.

In the case of C50A C65A, the self-cleavage was 0.142.

Regarding A49U U52G, the self-cleavage came to 0.364.

A49U U52C: the self-cleavage was determined as 0.202.

As to C50A U55C, the self-cleavage came out at 0.582.

Consider C48G A64U, for which the self-cleavage was determined as 0.149.

Regarding C48G A64G, the self-cleavage is 0.155.

Regarding C48A G56U, the self-cleavage was 0.304.

For the variant C48A G56A, the self-cleavage was determined as 0.135.

Take C50G C65U: the self-cleavage stood at 0.0289.

C48G A71G: the self-cleavage turned out to be 0.142.

For C48U G51U, the self-cleavage was found to be 0.165.

As for C48U A61G, the self-cleavage was determined as 0.177.

A49G U53G: the self-cleavage was 0.44.

For A49G U53C, the self-cleavage worked out at 0.363.

Take C48G U67G: the self-cleavage was 0.113.

On to C48G G57U, for which the self-cleavage turned out to be 0.101.

Consider C48G G57A, for which the self-cleavage amounted to 0.151.

For C48U U67G, the self-cleavage was 0.0927.

Take C48A G57C: the self-cleavage was found to be 0.148.

C50A G57C: the self-cleavage amounted to 0.133.

On to C48U A49G, for which the self-cleavage was found to be 0.153.

Take C48U A49U: the self-cleavage came out at 0.208.

Consider A49G A59C, for which the self-cleavage was determined as 0.194.

Take A49G A59G: the self-cleavage turned out to be 0.145.

Turning to A49G G69U, the self-cleavage came to 0.148.

Regarding A49C U67G, the self-cleavage was 0.109.

In the case of A49C U67C, the self-cleavage is 0.0984.

As for A49C U67A, the self-cleavage amounted to 0.13.

For the variant C48G G51U, the self-cleavage was 0.17.

Consider C48G G51C, for which the self-cleavage was 0.0824.

For the variant C50A U53A, the self-cleavage came to 0.384.

With C48A G54U, the self-cleavage is 0.176.

Turning to C48A G54C, the self-cleavage amounted to 0.0747.

For A49G G54C, the self-cleavage was 0.277.

As to A49G G54U, the self-cleavage is 0.541.

Consider A49G G54A, for which the self-cleavage was 0.64.

On to A49U G57C, for which the self-cleavage was 0.0724.

For the variant A49C U53G, the self-cleavage turned out to be 0.0631.

As for A49C U53C, the self-cleavage came out at 0.27.

For A49C U53A, the self-cleavage worked out at 0.0758.

With C48A, the self-cleavage was found to be 0.157.

Regarding C48G, the self-cleavage is 0.153.

On to C48U, for which the self-cleavage worked out at 0.158.

As for C50G G54U, the self-cleavage stood at 0.441.

Regarding C50G G54A, the self-cleavage was found to be 0.487.

For the variant C48G U53G, the self-cleavage is 0.128.
